Results reported in article PMC12197871.

Legend:
[1] = substrate: CC(=O)C(=O)O; test: purified protein, by the assay type; details: pH 6.5
[2] = substrate: CC(=O)C(=O)O; test: purified protein, by the assay type; type: biochemical; details: pH 6.5

B1: WT GsLDH (Geobacillus stearothermophilus) (protein)
chain: MKNNGGARVVVIGAGFVGASYVFALMNQGIADEIVLIDANESKAIGDAMDFNHGKVFAPKPVDIWHGDYDDCRDADLVVICAGANQKPGETRLDLVDKNIAIFRSIVESVMASGFQGLFLVATNPVDILTYATWKFSGLPHERVIGSGTILDTARFRFLLGEYFSVAPQNVHAYIIGEHGDTELPVWSQAYIGVMPIRKLVESKGEEAQKDLERIFVNVRDAAYQIIEKKGATYYGIAMGLARVTRAILHNENAILTVSAYLDGLYGERDVYIGVPAVINRNGIREVIEIELNDDEKNRFHHSAATLKSVLARAFTR
- K0.5 [1]: 2.8 ± 0.4 mM

B2: Triple mutant (Geobacillus stearothermophilus; N293S/Q189L/R104C) (protein)
chain: MKNNGGARVVVIGAGFVGASYVFALMNQGIADEIVLIDANESKAIGDAMDFNHGKVFAPKPVDIWHGDYDDCRDADLVVICAGANQKPGETRLDLVDKNIAIFCSIVESVMASGFQGLFLVATNPVDILTYATWKFSGLPHERVIGSGTILDTARFRFLLGEYFSVAPQNVHAYIIGEHGDTELPVWSLAYIGVMPIRKLVESKGEEAQKDLERIFVNVRDAAYQIIEKKGATYYGIAMGLARVTRAILHNENAILTVSAYLDGLYGERDVYIGVPAVINRNGIREVIEIELSDDEKNRFHHSAATLKSVLARAFTR
- K0.5 [2]: 0.41 ± 0.09 mM
- kcat [2]: 57 ± 8 s⁻¹

B3: Gln189Leu (Geobacillus stearothermophilus; Q189L) (protein)
chain: MKNNGGARVVVIGAGFVGASYVFALMNQGIADEIVLIDANESKAIGDAMDFNHGKVFAPKPVDIWHGDYDDCRDADLVVICAGANQKPGETRLDLVDKNIAIFRSIVESVMASGFQGLFLVATNPVDILTYATWKFSGLPHERVIGSGTILDTARFRFLLGEYFSVAPQNVHAYIIGEHGDTELPVWSLAYIGVMPIRKLVESKGEEAQKDLERIFVNVRDAAYQIIEKKGATYYGIAMGLARVTRAILHNENAILTVSAYLDGLYGERDVYIGVPAVINRNGIREVIEIELNDDEKNRFHHSAATLKSVLARAFTR
- K0.5 [2]: 2.3 ± 0.2 mM
- kcat [2]: 73 ± 12 s⁻¹
